Assay results: a protein production outcome set (Wang et al. 2014)

Assay: label from the status in PepcDB records

Row | Sequence | protein production
1 | MRRICKVLMVIISIILGSGAPLNMAIPPLLALAAPDTSSSSTMSSSAISKVTDTNVMAVSADVTSTTDTSDTSSSDSTSATSTTTGNDTTETADTAVESGTVGTVAWTIDDAGVLTLSGGSFADLTGKRSPWYDYASSITNIKITDEITVTTASNYGYLFASLANVATVTGLNKLSMSGVTSTQSIFYRDSKLTSVDFGQTDFSTVTTMESMFEGCSVLTKVNTTNWNVSHVKSFKRTFYMCGKLTMLDVSNWDVTQVTNLDSTFSGCSSLPELDVSRWNTANVTTLASTFYSCSSVKIINASGWDTARVTDMTATFMNCTLATELNVSGWDTAKVTSMSRMFFYCENVIQLDVSGWITSQVTSLGSMFQNCSKVVTLDVGTWDTSKVTDMSFLFGGCSSLTTLNLEKWDTGSVTTLYSTFYNCSGLTSLLVDTWDTSKVTNCFWTFGGCSSLTTLNLRSWDLQSATASYGNFFNGSKKLQHLTLGPNFTFHNDKTMYLPEPSKQLPYNGTWQRNNDDPTYTSAELMTNYDGATMAGTYNWVKTSGTVLVKYVDGDGVEIADEETSSGTSGDAYQTTAKTIDGYTLHATPTNATGTYDASTITVTYVYDGNLFFNSSPTMLDFGSHTISGTTETYAPTLDKTLAVQNNGQISSTWNLTAELDSSGFVGADTGKMLLATLYYQTDDGKMTLSPGVAVQVYSQTTTDHKSVDISEHWSSNLGLLLEVPNGAAMADTYQGTISWRLNNTVANN | failed
2 | MLSVFVVNLRSNSAPFSFSRLLMHTTIVNERSLRTCNFPITLQDIRTLKELYRLKAETRDLRKPIVRNIMKQRVVGKGCLESLKNALYSLETIYIDDYTGQRLLRIDGMKQIEVDLTYEIRELQKDIYYLEYGEDRFIEYLAKFIPGFTDYVTEGVEMLRGKSFNAFITDRDGTTNNYCGRYRSSIQPIYNSVFLSRFAKNCCRYPMIVTSAPLKDFGILNVSINPEHIFVYAGSKGREFIDIDGQFHSFPIEPGKQELIRLLNERMQLLLLDPSFEKFNFIGSALQMKFGQTTIARQDITRSVNEAESAAFLEKIKGIVRDIDPEGKNFRIEDTGLDIEIILTIDVDPKTGMIRDFDKGDGLEFICRKMNIDHTGEPVLVCGDTSSDIPMLKKAMEMYDDVWAIFVTRDEKLMQRVREICPKSYMVPYPDILLTILGLLSL | failed
3 | MAYLVFAYLVGSLVAGLLFFPEVRGKDLPGGSGVFRRKGPWAALLAVAFDLGKGALVALLTPEAYLPWAGALLVAGHTWPVFFRFRGGGGIAPSLGFFLVWRPAETLWATLFGLGVAGLYHLLFWRRRRKGIYPIPFGAIFGYLLLVYTLSGEARLGALLVAGVVLLRGLQILAGRW | failed
4 | MSDHKAVHSVQAKAEGKTLVMERSFEAPRELVFKAFSGSVHLESWWGPKGWQTANSRFEFQPDGVWLYCMECRDQNQGEFYGRKSCGKAVFQEIAAPEKIVYTDMFTDEEGNVVPGMPEILNEVYFQERDVGTKLITRSHFSSPKELQQLLDKGMVEGFSSQLERLEDYLKAIR | failed
5 | MALRKEDLILIPLVAGVMMGAIDSTIVVLALPTISDDLKAPLSLSIWIILAYLLVAAVSTTQFGRLGDMISRKTIFNSGMAIFTLGSFLCGVSSNIDFLIAFRFVQAAGGSMMQANSGSIIADNFPPNLRGRAYGYTSVGWNSGATLGIVLGGIITTLIGWRYIFYINVPVGIISLYFAIKYIIPGSKKNVKLDVPGVVTLTAALSSIAYAATDFTSHGLETTNETLLSIGFLLLVVFIFLERTNKNALLPFHLFQNRVFNFSIAASFLQSLGYLAVTFIVIMYLQGLRGLTPLDSSLLLVPGYVLGGFTGPIFGKLSDRIGARTPATLGMFLMMIAVLLYMTFNLKTPVYYVIPVSIISGLGSSMFFPANNSAVMASSPAGSYGAASGLLRTMANIGMLGSFVLAITVSTIAIPRYVAFEVFAGVGRLVGGLSASFLTGIHTALEVSFAIIAVGMLFSFVRGKENRSTSTPPRATETTK | failed
6 | MTLRAARPEFLDLFPAGAEARRLADGFTWTEGPVYVPARSAVIFSDVRQNRTWAWSDDGQLSPEMHPSHHQNGHCLNKQGHLIACSHGLRRLERQREPGGEWESIADSFEGKKLNSPNDVCLAPDGSLWFSDPTYGIDKPEEGYGGEMELPGRWVFRLAPDGTLSAPIRDRVKPNGLAFLPSGNLLVSDTGDNATHRYCLNARGETEYQGVHFTVEPGKTDGLRVDAGGLIWASAGDGVHVLTPDGDELGRVLTPQTTSNLCFGGPEGRTLYMTVSTEFWSIETNVRG | failed
7 | MKTVLAFGDSLTWGADPATGLRHPVEHRWPDVLEAELAGKAKVHPEGLGGRTTCYDDHAGPACRNGARALEVALSCHMPLDLVIIMLGTNDIKPVHGGRAEAAVSGMRRLAQIVETFIYKPREAVPKLLIVAPPPCVAGPGGEPAGGRDIEQS | not failed
8 | MLSIIIPVYNEKGNILELTSRIKSALKNNEYEIVFVDDSTDETPKIIESLALKYNNIRLKHRKGKKGLSSAVIDGFKLARGDVLSVMDGDLQHPPEMLESMLFQMKKDTDIVICSRFVLGGKEEGLNIFRKFASFIARLIGKIFLKPLRKISDPTAGFFMLKRKVIKNRDLRAIGWKILIEILVMGDYKRVVELPYSFKRRKHEKSKFTISVQGQYLKQIVSLFIRSKKYNIKLEHHHHHH | not failed
9 | MGVRLVLRLVPRLVTRFTPLGLGMVALGCALVASFYSPPSFASIWDLLTNKRGVSQASVSKDSPRIELVGTLPADTELELIGFYYSSICTEKEMYFPSGDIANPQWRTKGTTSQLRQVVTSLHNASHFTQSVALQGGGACEWQLTNIQLNMSLLPSHRLWQEAQSLKKQYLAELPVAKVKDEALEKDAFKQSFDLIPTAKEADAASADSNDATITFSPIYYPIYSYAPEDKQPFDVGLKSSLQREVSDRWSLQHSRRIRLADERVTRVNFTPQIAEDYAVNIHILDRKSKVSYPDGTEFTYIKAGLRLYPYGSAESRFNSLQRSARLEDKRQLAKIYDSGIEHVFEGDKAKAEVLYRELGEAGDMESINWLRERARWGYIKDGQYWLARAAKLGDIQAQLELINQPLSVIPQGKVNTGQAKIREQQAWQTLTELTKQGIPQAVSTMAYYQVFSCSPYFNTTAALDNYRKSVKAQPDLARDAAETYYYFKEDLAQAREFFEIAAEREIDVAAEYAGILLAAEQRDPKRARYWLEKVVTAGDKQYIQQDVLGYAYFRLASLLDAGEGGDADPKRAITLYQQSIELGEGFSNDYQAKAKERLQSLQERHL | failed
10 | TSLEEITKAIMADSQNKVFTEKNIEPLFAAPKTARINIVGQAPGIKAQESRLYWNDKSGDRLREWMGVDYDTFYHSGYFAVIPMDFYYPGKGKSGDLPPRKGFAQKWHQPILDLLPDIQLTILIGNYAQKYYLHQKSSVKLTDTVAHYKKYLPDYFPLVHPSPRNQIWMSRHPWFEAQVVPDLKKIIQQIIQSS | not failed
11 | ATHIIFTTHENSDGDGLGSQVALALALKALGKEVAIFNPTEVPPNYLFLKELHEINLFRDRDEESMQEFFLADLLVVLDANLHDRIGRLWPHVEFARQMSRLKVLCIDHHLEPEDFADITVCETYASSTGELVCDLVTALELRTGQQLFTPEVASALYAAIMTDTGSFRFPKTTPYTYRLAGMLVEKGADPELVYDRIYNAL | failed
12 | MPVILCPAAEESSGLMMKSAETASLTVSHNELQAMAYTDPLTGLGNRNRMRDKVLQISAERASDPAPFTIGIANLDSFKPINDLFGSSAGDEILCQVAHRLRACIPDGALVTRHDGDEFAFVLPLIFERASAEKFGQMIREVLSAPYDLGDRNVRLSASFGFAIYPFAGEDCEELLKSAETALYRSKRRGRGQITVYSREIAQEMKRATQLEQALRNAIISDAIDVHFQPIVSLANNQVVGFEALARWNDPDLGFVSPGVFVPLAEERGFIDALSEALLRKAAEAALSWPRELFLSFNLSSAQLMDPGTSGSILSILGRVGFDPHRLELEITETAVMGSADTAHRIIADLRAAGVRISLDDFGTGQSSLGRLRDFIFDKIKIDRAFVSRINSDRASEHIIKAILSLCEGLELEVVAEGIEDYAEAVKLRTLGCGMGQGYHFGRPADGIATLRFLHENYYDMAPAERVSA | failed
13 | MTARELLKIVVVGHVDHGKSTIIGRLLYDTKSVPEAAIERVKRISKEKGRPFEYAYLLDALEEEQKQGITIDTTQIKFSTPKRDYLIIDAPGHKEFLKNMVSGAANAEAALLVIDAAEGVQEQSKRHAYILSLLGIQKVYVIVNKMDMIEFSEKKFKEIKYEISTFLSKLNVYPQKYIPVSGFLGENIARKSDKMPWYKGETLLQALDLFEKDKELEDRPLRFPIQDVYKFDHRRVIAGRLESGRLKVGDEIKILPEGKVSKVKSIEFWPENNKKDEVVAGMSIGITIEDEFFNKRGEVIVHKNDNTLYVSDTFRANLFWLGKRNLVKNKTYKLKLVTQETECEIVSIDKVIDATTLETVENALEVRTNDVAEVTIKTREKICFDEFKVNPTTGRFVLVDEYDVSGGGIISGLANLKEEATKFVKDDKEMIVHCFDEYYYSLSEGLIRKHSKYKRTFKVGDAVPIEGETYSYPESFDVIDINGKLVAKVRKGQLSDLVDIDQYIYSELPIITADGFYLKVNSIDEFKDFKNELVQLQKNDNFHLAMFANKWYDISANRSFKFTV | failed
14 | MADYNNAVVFYDTSGIEYSKQIKKTLERGFERECFLINLDNRENTLSRLNLAMKTSKYVIFLFSSMYSNENMLDEAKTAFNSDKHIISLKLDDPELKKQISIHQSEFEDNYGLSKKVNDEVEKLKKMEKKGTDFVESQISFNMGNIYFNFGKYAEAIRCYKKAVKIIPDFVDALHNFNSLSNMNLFDMGEEPKKPVLYKDVTIDELVPDIFSNTVQKEPEEPQKYSELEPEELEDLILDGEIGENLEEIGSEDELTEKIDDKLPEIDESKDKSKAQPEDELNETFEEGIEYETFEVIDAEEKNEISDENLEISSLEPEFEEKSIFKLEKETEQPELEENLEPVLEVPEELVEDVEILDASEEDIEKELENQEVIIEEKLETLDELLDKSELESELVEEHTYEIDNNEFLEILSFANTLYESGDFEAAKTEYKKAIALNPGNSEVHNHYGCLLEYLEKYGEAEIEFKKAVALDGSNSKAYNNLATFLAKSEKYDEAEEHYKKAIEIAPDYWAAIYNLAAMYAALKRYDEAVAQVKSMVKIFRSDGNIKEVLELKKLIKHLKKLKIQKS | failed
15 | MGHHKAMPYADVAAFIIELRKREAVAATALEFTILTAARSGETLGAKWHEIDWKDKIWTVPAERMKAAREHRVPLSSRTITILKKLAEFGSDENSFVFPGQKPGKPLSVMAMDMVLRRMEVDVTVHGFRSSFRDWCGEVSNFPRDVAEAALAHVVGDKTERAYRRGDALEKRRKLMAAWEKFCIAEIKKNPLEHHHHHH | failed
16 | PVVVSEAGASVYSASEAAAREFPDMDVSLRGAVSIARRLQDPLAELVKIDPKAIGVGQYQHDVNQTALAKTLDAVVEDAVNAVGVDLNTASVPLLARVAGVSPTIAENIVHYRDEHGAFVNRTALKKVPRLGPKAFEQCAGFLRISGGKDPLDASAVHPEAYPVVRKMSEATGLSVEKLIGNSHVLSSLRPSDFA | failed
17 | MEPTDVSTGTGKVLLLDTKRYGYWKVCMTQIIRGQEDGFKITKPKANWTAEEKLQSKFNARAMKAIFNGVDEDEFKLIQGCKSAKQAWDTLQKSHEGTSSVKRTRLDHIATQFEYLKMEPDEKIVKFSSKISALANEAEVMGKTYKDQKLVKKLLRCLPPKFAAHKAVMRVAGNTDKISFVDLVGMLKLEEMKADQDKVKPSKNIAFNADQGSEQFQEIKDGMALLARNFGKALKRVEIDGERSRGRFSRSENDDLRKKKEIQCYECGGFGHIKPECPITKRKEMKCLKCKGVGHTKFECPNKSKLKEKSLISFSDSESDDEGEELLNFVAFMASSDSSKFMSDTDSDCDEELNPKDKYRVLYDSWVQLSKDKLKLVKEKLTLEAKLANVSTEDKQKLSGITVDGNSQDYYQKKLDCLQKECHRERDRTKLLERELNDKYKQIRMLNKGLESLDKILAMGRTDSQQRGLGYQGYTGKIKKEEGRVINFVSGGSTSETVVRQSYIEPKKQVKSHVEIKRESVVRTRMVGVICCDHCGKRFHMREQCYKFKEKVRTLWNLAKCFIEPSRFCTVWIKKKDLYGDMEAERYNHKLERMYEEEEMHYASCCNQVNKEMQDEARKKDDSFGST | failed
